# According to US20160090401A1 (UNIVERSITY OF BRISTOL, published 2016):
# Bridge positions count the residues as written; N and C are the ends. I, II: the chains in the order shown.
# T1: CC-Di-BI (N-terminal acetyl; C-terminal amide)
# T1 construct: also called basic peptide of CC-Di-AIBI
# T1 peptide: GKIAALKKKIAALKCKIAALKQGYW
# T2: CC-Tri3-CC-Di-BQ (N-terminal acetyl; C-terminal amide; Cys in an asymmetric disulfide with the Cys of the trimer chain; N-terminal acetyl; C-terminal amide; Cys in an asymmetric disulfide with the Cys of the CC-Di-BQ …)
# T2 peptide 1: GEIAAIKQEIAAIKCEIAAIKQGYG
# T2 peptide 2: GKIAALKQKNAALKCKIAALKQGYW
# T3: CC-Di-AB (N-terminal acetyl (Ac-); C-terminal amide (printed -NH))
# T3 construct: also called heterodimer CC-Di-AB; heterodimeric coiled coil
# T3 peptide 1: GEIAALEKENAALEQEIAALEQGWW
# T3 peptide 2: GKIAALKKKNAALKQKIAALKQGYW
# B1: CC-Di-B (peptide)
# peptide: Ac-GKIAALKKKNAALKQKIAALKQGYW-NH2
# notes: Free module
# B2: CC-Di-AI (peptide)
# peptide: Ac-GEIAALEKEIAALECEIAALEQGWW-NH2
# notes: also called acidic peptide of CC-Di-AIBI
# B3: CC-Tri3-CC-Di-AQ (other)
# peptide 1: Ac-GEIAAIKQEIAAIKCEIAAIKQGYG-NH2
# peptide 2: Ac-GEIAALEQENAALECEIAALEQGWW-NH2
# modifications: disulfide I:15-II:15 (inferred)
# B4: CC-Di-A (peptide)
# peptide: Ac-GEIAALEKENAALEQEIAALEQGWW-NH2
# notes: Free module
# B5: CC-Tri3 (peptide)
# peptide: Ac-GEIAAIKKEIAAIKQEIAAIKQGYG-NH2
# notes: also called homotrimer CC-Tri3; homotrimeric coiled coil
# Assays:
# [1] = biological target: the molecule itself; assay: CD spectroscopy of the peptide alone (no homomeric coiled coil)
# CC-Di-BI = biological target: T1, CC-Di-BI; assay: method not stated for this variant
# CC-Tri3-CC-Di-BQ = biological target: T2, CC-Tri3-CC-Di-BQ; assay: mixing with the respective partner in PBS, 50 µM; SEM
# CC-Di-B = biological target: B1; assay: CD-monitored thermal denaturation over a range of peptide concentrations, extrapolated to 20 °C; dissociation of the heterodimer (two-state)
# CC-Di-AB = biological target: T3, CC-Di-AB; assay: CD thermal melting of the mixture, the same as the average of the two independent profiles
# [2] = biological target: the molecule itself; assay: CD-monitored thermal denaturation over a range of peptide concentrations, extrapolated to 20 °C; dissociation of the homotrimer (two-state)
binder,measurement,setting,value
B1,binding result,[1],no binding (tested: micromolar range)
B2,affinity relative to the CC-Di-AB parent,CC-Di-BI,> 100 fold
B3,binding result,CC-Tri3-CC-Di-BQ,binds
B4,binding result,[1],no binding (tested: micromolar range)
same,Kd,CC-Di-B,58.3 nM
B5,binding result,CC-Di-AB,no binding
same,Kd,[2],0.0399 pM
